What all share (experiment): two-hybrid library CCNG1;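 further: natural log of median RNA to DNA barcode read ratio; higher means stronger binding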
One test addresses T1, O8-bH.
T1 chain: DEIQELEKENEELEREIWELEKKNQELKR

Another test addresses T2, O6-bH.
T2 chain: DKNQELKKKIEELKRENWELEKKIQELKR

The next test addresses T3, O5-bH.
T3 chain: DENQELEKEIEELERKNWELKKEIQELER

A further test concerns the target T4, O9-bH.
T4 chain: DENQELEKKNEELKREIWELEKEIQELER

The next test deals with T5, O4-bH.
T5 chain: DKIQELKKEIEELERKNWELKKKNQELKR

The next test has as its target T6, O7-bH.
T6 chain: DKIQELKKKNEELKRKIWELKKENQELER

A further test concerns the target T7, 4H3974-bA.
T7 chain: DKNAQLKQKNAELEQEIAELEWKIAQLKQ

Another test addresses T8, 4H570-bA.
T8 chain: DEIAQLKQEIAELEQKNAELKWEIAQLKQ

Another test has as its target T9, 4H584-bA.
T9 chain: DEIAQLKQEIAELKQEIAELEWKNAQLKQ

Another test deals with T10, 4H619-bA.
T10 chain: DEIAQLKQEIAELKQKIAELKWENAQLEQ

Another test concerns the target T11, 4H906-bA.
T11 chain: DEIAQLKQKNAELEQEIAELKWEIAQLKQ

In a further test the target is T12, 4H3414-bA.
T12 chain: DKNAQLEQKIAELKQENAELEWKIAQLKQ

In the next test the target is T13, 4H3631-bA.
T13 chain: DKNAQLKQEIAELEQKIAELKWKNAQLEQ

A further test addresses T14, 4H850-bA.
T14 chain: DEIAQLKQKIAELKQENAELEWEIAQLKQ

The target in the next test is T15, 4H3817-bA.
T15 chain: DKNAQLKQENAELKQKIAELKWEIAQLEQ

A further test deals with T16, 4H3638-bA.
T16 chain: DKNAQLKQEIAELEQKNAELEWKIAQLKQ

The target in another test is T17, O16-bN.
T17 chain: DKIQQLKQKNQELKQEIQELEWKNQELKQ

The next test concerns the target T18, 4H949-bH.
T18 chain: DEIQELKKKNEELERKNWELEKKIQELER

Another test concerns the target T19, 4H796-bH.
T19 chain: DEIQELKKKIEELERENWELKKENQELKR

A further test addresses T20, 4H56-bH.
T20 chain: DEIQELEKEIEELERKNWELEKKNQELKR

The target in the next test is T21, 4H3381-bH.
T21 chain: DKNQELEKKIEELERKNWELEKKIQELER

The target in the next test is T22, 4H3041-bH.
T22 chain: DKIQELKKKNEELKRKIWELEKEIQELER

Another test concerns the target T23, 4H4073-bA.
T23 chain: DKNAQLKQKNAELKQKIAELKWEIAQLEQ

Another test concerns the target T24, 4H2931-bH.
T24 chain: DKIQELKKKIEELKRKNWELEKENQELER

For a further test, the target named is T25, 4H2760-bH.
T25 chain: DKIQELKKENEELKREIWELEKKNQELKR

A further test deals with T26, 4H349-bH.
T26 chain: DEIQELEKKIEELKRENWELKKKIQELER

The target of a further test is T27, 4H932-bH.
T27 chain: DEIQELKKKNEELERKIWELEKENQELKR

Another test has as its target T28, 4H40-bH.
T28 chain: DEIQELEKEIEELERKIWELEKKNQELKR

In a further test the target is T29, 4H2859-bH.
T29 chain: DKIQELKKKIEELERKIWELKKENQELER

In the next test the target is T30, 4H3297-bH.
T30 chain: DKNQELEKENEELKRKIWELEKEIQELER

The target in another test is T31, 4H3364-bH.
T31 chain: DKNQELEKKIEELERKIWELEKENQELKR

The next test deals with T32, 4H730-bH.
T32 chain: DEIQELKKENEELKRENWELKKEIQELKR

The target of the next test is T33, O8-bA.
T33 chain: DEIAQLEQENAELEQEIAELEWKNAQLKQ

For the next test, the target named is T34, 4H3010-bA.
T34 chain: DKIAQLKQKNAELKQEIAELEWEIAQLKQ

A further test deals with T35, 4H264-bH.
T35 chain: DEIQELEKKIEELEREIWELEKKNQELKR

For the next test, the target named is T36, 4H575-bA.
T36 chain: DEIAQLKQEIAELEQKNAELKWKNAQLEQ

Another test addresses T37, 4H72-bA.
T37 chain: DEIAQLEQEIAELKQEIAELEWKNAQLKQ

For another test, the target named is T38, 4H3427-bA.
T38 chain: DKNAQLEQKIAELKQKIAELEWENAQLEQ

A further test deals with T39, 4H968-bA.
T39 chain: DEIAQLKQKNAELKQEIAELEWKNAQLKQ

The target of another test is T40, 4H3354-bA.
T40 chain: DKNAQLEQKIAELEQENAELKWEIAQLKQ

The target of the next test is T41, 4H683-bA.
T41 chain: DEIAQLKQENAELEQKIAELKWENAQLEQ

In the next test the target is T42, 4H331-bA.
T42 chain: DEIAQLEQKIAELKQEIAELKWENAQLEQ

The next test concerns the target T43, 4H883-bA.
T43 chain: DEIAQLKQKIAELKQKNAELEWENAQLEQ

The target of the next test is T44, 4H797-bA.
T44 chain: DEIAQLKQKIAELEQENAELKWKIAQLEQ

For another test, the target named is T45, 4H908-bA.
T45 chain: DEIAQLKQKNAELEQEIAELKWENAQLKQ

In another test the target is T46, 4H717-bA.
T46 chain: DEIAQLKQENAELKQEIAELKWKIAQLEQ

A further test has as its target T47, 4H3782-bA.
T47 chain: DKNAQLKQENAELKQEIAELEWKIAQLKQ

In the next test the target is T48, 4H953-bA.
T48 chain: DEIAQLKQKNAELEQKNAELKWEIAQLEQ

A further test has as its target T49, 4H918-bA.
T49 chain: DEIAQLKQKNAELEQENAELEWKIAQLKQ

Another test addresses T50, 4H3926-bA.
T50 chain: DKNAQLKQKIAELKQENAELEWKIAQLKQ

In the next test the target is T51, 4H780-bA.
T51 chain: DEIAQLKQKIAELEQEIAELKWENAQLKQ

Another test has as its target T52, 4H346-bA.
T52 chain: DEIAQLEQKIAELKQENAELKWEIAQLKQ

The target in a further test is T53, 4H607-bA.
T53 chain: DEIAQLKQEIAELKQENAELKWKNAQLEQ

Another test concerns the target T54, 4H3112-bA.
T54 chain: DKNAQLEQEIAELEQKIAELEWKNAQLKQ

A further test has as its target T55, 4H568-bA.
T55 chain: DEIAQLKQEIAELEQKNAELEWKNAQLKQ

The next test deals with T56, 4H3855-bA.
T56 chain: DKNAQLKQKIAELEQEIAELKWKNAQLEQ

The target of the next test is T57, 4H454-bA.
T57 chain: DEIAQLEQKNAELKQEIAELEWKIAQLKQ

A further test has as its target T58, 4H3185-bA.
T58 chain: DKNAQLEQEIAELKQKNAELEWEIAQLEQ

The target in another test is T59, 4H338-bA.
T59 chain: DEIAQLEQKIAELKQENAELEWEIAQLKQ

The target in the next test is T60, 4H687-bA.
T60 chain: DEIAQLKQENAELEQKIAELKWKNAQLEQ

The target in another test is T61, 4H967-bA.
T61 chain: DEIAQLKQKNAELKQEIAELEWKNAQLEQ

Another test addresses T62, 4H457-bA.
T62 chain: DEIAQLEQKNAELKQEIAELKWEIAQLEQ

For the next test, the target named is T63, 4H4001-bA.
T63 chain: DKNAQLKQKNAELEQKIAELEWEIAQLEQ

A further test concerns the target T64, 4H754-bA.
T64 chain: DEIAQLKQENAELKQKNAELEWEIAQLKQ

A further test has as its target T65, 4H855-bA.
T65 chain: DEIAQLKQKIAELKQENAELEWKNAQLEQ

B1: O4-bH (peptide)
chain: DKIQELKKEIEELERKNWELKKKNQELKR
Regarding B1, the interaction score with O8-bH is 1.07; in the test with O6-bH, 0.0257; with O5-bH, -1.47; with O9-bH it was -2.1; with O4-bH, -1.04; with O7-bH, 0.376.

B2: 4H3414-bA (peptide)
chain: DKNAQLEQKIAELKQENAELEWKIAQLKQ
Consider B2, for which the interaction score in the test with 4H3974-bA is -0.77; with 4H570-bA, 0.386; with 4H584-bA, -0.456; with 4H619-bA, -1.25; in the test with 4H906-bA it was -0.43; with 4H3414-bA, 0.915. Also, the interaction score with 4H3631-bA was 0.00557; with 4H850-bA, -0.866; with 4H3817-bA, 0.381; with 4H3638-bA, 1.02.

B3: 4H2760-bH (peptide)
chain: DKIQELKKENEELKREIWELEKKNQELKR
B3: the interaction score is 0.693 with O16-bN; -0.189 in the test with 4H949-bH; 0.41 with 4H796-bH; -1.85 with 4H56-bH; 0.571 with 4H3381-bH; 0.73 in the test with 4H3041-bH. Further, the interaction score is -0.277 with 4H4073-bA; -0.365 with 4H2931-bH; 1.46 in the test with 4H2760-bH; 0.171 with 4H349-bH; -1.86 in the test with 4H932-bH; -1.45 with 4H40-bH. Besides, the interaction score in the test with 4H2859-bH was 0.64; with 4H3297-bH, 1.12; with 4H3364-bH, 0.427; with 4H730-bH it was -0.92.

B4: 4H264-bH (peptide)
chain: DEIQELEKKIEELEREIWELEKKNQELKR
As to B4, the interaction score in the test with O8-bA was 0.091; with 4H949-bH it was -0.764; with 4H796-bH it was -0.303; with 4H56-bH, -0.538; with 4H3381-bH, 1.06; with 4H3041-bH it was 1.23. Further, the interaction score was 0.678 with 4H2931-bH; 0.562 with 4H2760-bH; 1.67 in the test with 4H3010-bA; 0.113 with 4H349-bH; -0.203 with 4H932-bH; 1.8 in the test with 4H2859-bH. For the same molecule, the interaction score came out at 0.678 in the test with 4H264-bH, 1.11 with 4H3297-bH, 0.996 with 4H3364-bH and 0.131 with 4H730-bH.

B5: 4H3112-bA (peptide)
chain: DKNAQLEQEIAELEQKIAELEWKNAQLKQ
For B5, the interaction score with 4H575-bA is -0.587; with 4H72-bA, -0.233; with 4H3427-bA it was 1.55; in the test with 4H968-bA, -1.09; with 4H3354-bA, 0.000615; in the test with 4H683-bA, -0.379. Also, the interaction score with 4H331-bA is 0.496; in the test with 4H883-bA, 0.791; with 4H797-bA, 0.364; with 4H908-bA, 0.0545; with 4H717-bA, 0.267; with 4H3782-bA it was -0.731. Moreover, the interaction score with 4H953-bA is -0.984; with 4H918-bA, -1.88; with 4H3926-bA, -0.342; with 4H4073-bA it was 1.32; with 4H780-bA, -0.567; with 4H346-bA, -0.0408. The interaction score with 4H607-bA was -0.643; with 4H3112-bA, 1.17; with 4H568-bA it was -1.31; with 4H3855-bA it was -0.227; with 4H454-bA, -1.72; with 4H3185-bA it was 0.447. For the same molecule, the interaction score in the test with 4H338-bA is -0.842; with 4H687-bA, -1.13; in the test with 4H967-bA, -0.715; with 4H457-bA it was -0.509; with 4H4001-bA, -0.41; in the test with 4H754-bA, -0.483. The molecule also yielded an interaction score with 4H855-bA of 1.01.

For the origin of these results see PMC10397247.
